Experimental data: PMC11721787 (Science translational medicine, 2023)

Tests used:
[1] = target: PUUV Gn/Gc on virus-like particles (VLPs) (Puumala orthohantavirus, strain of the …, UniProt A0A0B4U5I0); assay: ELISA
PUUV Gn^H (head of Gn) = PUUV Gn^H (head of Gn) (Puumala virus, UniProt P27312); assay: crystal structure
PUUV Gc ectodomain = PUUV Gc ectodomain (Puumala virus, UniProt P27312); assay: crystal structure
Chain of PUUV Gc ectodomain (P27312 659-1093): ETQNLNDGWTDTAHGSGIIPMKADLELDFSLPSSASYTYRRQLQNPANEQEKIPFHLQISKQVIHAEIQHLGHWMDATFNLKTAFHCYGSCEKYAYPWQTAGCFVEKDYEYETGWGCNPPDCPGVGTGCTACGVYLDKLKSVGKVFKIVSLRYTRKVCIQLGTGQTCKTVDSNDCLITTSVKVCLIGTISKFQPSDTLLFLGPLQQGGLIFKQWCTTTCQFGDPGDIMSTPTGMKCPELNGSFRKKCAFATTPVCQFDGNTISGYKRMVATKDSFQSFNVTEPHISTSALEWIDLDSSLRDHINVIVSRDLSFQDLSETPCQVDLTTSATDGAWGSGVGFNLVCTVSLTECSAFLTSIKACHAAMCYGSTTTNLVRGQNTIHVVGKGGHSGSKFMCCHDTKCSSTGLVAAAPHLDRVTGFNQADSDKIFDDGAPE

Chain of PUUV Gn^H (head of Gn) (P27312 20-381): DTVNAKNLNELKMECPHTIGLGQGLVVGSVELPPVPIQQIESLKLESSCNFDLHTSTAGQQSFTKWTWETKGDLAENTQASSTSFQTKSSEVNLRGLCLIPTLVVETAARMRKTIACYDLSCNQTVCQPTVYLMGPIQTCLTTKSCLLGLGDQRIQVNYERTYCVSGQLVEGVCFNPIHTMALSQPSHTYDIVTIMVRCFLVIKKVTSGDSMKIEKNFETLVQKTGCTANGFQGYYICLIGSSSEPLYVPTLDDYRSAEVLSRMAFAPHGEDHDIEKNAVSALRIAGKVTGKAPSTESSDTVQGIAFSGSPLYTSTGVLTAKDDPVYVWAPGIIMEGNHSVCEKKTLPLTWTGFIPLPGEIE

B1: ADI-42898 monovalent antibody-binding fragment (Fab) (Fab, V domains shown)
VH: QVQLVESGGGVVQPGRSLRLSCAASGFTFSSYAMHWVRQAPGKGLEWVAVTWFDVSKKDYADSVKGRFTISRDNSKNTLYLQMNSLRAEDTAVYYCARNLIRYSGSYFPVHGMDVWGQGTTVTVSS
VL: DIVMTQSPLSLPVTPGEPASISCRSSQSLLHTYGYNCLDWYLQRPGQSPQLLISLGSYRASGVPDRFSGSGSGTDFTLKISRVEAEDVGVYYCMQALHPFTFGGGTKVEIK
binding result [1]: binds

B2: ADI-42898 (monoclonal antibody, IgG) (antibody, V domains shown)
VH: B1 VH
VL: B1 VL
binding result [1]: binds

B3: ADI-42898 single-chain, variable domain fragment (scFv) (scFv, V domains shown)
VH: B1 VH
VL: B1 VL
binding result (PUUV Gn^H (head of Gn)): binds | binding result (PUUV Gc ectodomain): binds
